Experimental data reported in paper PMC8017925, “Structural basis for differential recognition of phosphohistidine-containing peptides by 1-pHis and 3-pHis monoclonal antibodies” (Proceedings of the National Academy of Sciences of the …, 2021).

T1: NM23 peptide, 3-pHis form
T1 sequence (peptide, biotin on the N-terminus; C-terminal amide; 3-phosphohistidine at position 5): RNIIHGSDS

T2: ACLY peptide, 3-pHis form
T2 sequence (peptide, biotin on the N-terminus; C-terminal amide; 3-phosphohistidine at position 5): VQFGHAGAC

T3: Common-His peptide, 3-pHis form
T3 sequence (peptide, biotin on the N-terminus; C-terminal amide; 3-phosphohistidine at position 5): GEQLHDLNA

T4: ACLYana-3-pHis peptide (AGAG-3-pHis-AGAG)
T4 sequence (peptide, 3-phosphohistidine at position 5; biotin on the N-terminus): AGAGHAGAG

T5: ACLYana-1-pHis peptide (AGAG-1-pHis-AGAG)
T5 sequence (peptide, 1-phosphohistidine at position 5; biotin on the N-terminus): AGAGHAGAG

B1: SC39-4 Fab (Fab, V domains shown)
VH: QSVEESGGRLVTPGGSLTLTCTVSGFSLSRYNMGWVRQAPGKGLEWIGWIPFRGSLKYATWATGRFTISRTSTTVDLRMTGLTAADTATYFCVRSSDGFDLWGPGTLVTISS
VL: DMTQTPASVEAVVGGTVTIKCQASRDTGDGLIWYQQKPGQPPKRLIYKASTVASGVPSRFKGRGSGTDFTLTISDLECADAATYYCHSNFYNRWTYGNAFGGGTEVVVK
B2: SC39-4: Fab of rabbit 3-pHis-specific monoclonal antibody (antibody, V domains shown)
VH: B1 VH
VL: B1 VL
B3: SC56-2 Fab (Fab, V domains shown)
VH: QSVEESEGGLIKPGGILTLTCTASGFSLSSYGFSWVRQAPGKGLEHIGYLHANGRAYYATWAKSRSTITRNTNLNTVTLQLTSLTAADTATYFCAKIGSVSDVAIWGPGTLVTISS
VL: DMTQTPSSTSAAVGGTVTINCQSSESIYNNKNLAWYQQKPGQSPRRLIYSISTLASGVSSRFKGSGSGTQFTLTISDVQCDDAATYYCVGYYYSGGYYYSGSAAYYAFGGGTEVVVK
B4: SC56-2: Fab of rabbit 3-pHis-specific monoclonal antibody (antibody, V domains shown)
VH: B3 VH
VL: B3 VL
B5: SC1-1 Fab (Fab, V domains shown)
VH: QSVEESEGGLFKPTDTLTLTCTASGFSLSGHGVIWVRQAPGKGLEWIGSAGAYGRIYYASWAKSRSTITRNTNLNTVTLKMTSLTAADTATYFCARRSDVGTSVGFDSWGPGTLVTISS
VL: DMTQTPSSKSVPVGDTVTINCQASESVYSNNRLSWFQQKPGQPPKLLIYLVSTLASGVPSRFKGSGSGTQFTLTISDVVCDDAATYYCVGYKSSTTDGLAFGGGTEVVVK

Key:
[1] = substrate: SCS peptide, 3-pHis form; test: BLI; biotinylated pHis peptides (20 nM) on streptavidin biosensors, Fab in solution at varying concentrations; 50 mM Hepes pH 8.0, 150 mM NaCl, 0.05% Tween-20, 0.2% BSA; Octet RED96e; global fit to a 1:1 Langmuir model
[2] = target: T1, NM23 peptide, 3-pHis form; test: as above
[3] = target: T2, ACLY peptide, 3-pHis form; test: as above
[4] = target: T3, Common-His peptide, 3-pHis form; test: as above
[5] = target: ACLYana-3-pTza peptide (AGAG-3-pTza-AGAG); test: BLI; N-terminally biotinylated peptides (20 nM) on streptavidin biosensors, varying concentrations of Fab in solution; 50 mM Hepes pH 8.0, 150 mM NaCl, 0.05% Tween-20, 0.2% BSA; association 120 s, dissociation 200 s; global fit to a 1:1 Langmuir model; Octet RED96e; in triplicate
[6] = target: T4, ACLYana-3-pHis peptide (AGAG-3-pHis-AGAG); test: as above
[7] = target: ACLYana-3-pTza peptide (AGAG-3-pTza-AGAG); test: BLI binding kinetics of 3-pHis Fabs with cognate pTza peptide; conditions: triplicate; for Kd: BLI Octet RED96e, N-terminally biotinylated peptide (20 nM) on streptavidin biosensors, varying Fab concentration, 50 mM Hepes pH 8.0, 150 mM NaCl, 0.05% Tween-20, 0.2% BSA, association 120 s, dissociation 200 s, global fit 1:1 Langmuir; for ka / kd: BLI, immobilized biotinylated ACLYana-3-pTza, 1:1 Langmuir global fit
Experimental: (§1) Biolayer interferometry (BLI) studies were performed to determine the relative affinity of pHis Fabs to in situ phosphorylated His peptides versus the phosphomimetic substrates. The N-terminally biotinylated peptides were immobilized on streptavidin biosensors and the rate of association (ka) and dissociation (kd) were determined by varying the pHis Fab concentration. Equilibrium dissociation constants (KD) were determined by fitting the experimental data to a 1:1 Langmuir binding model. ACLYana-1-pTza and ACLYana-3-pTza peptides were used to determine affinity to 1-pHis and 3-pHis Fabs, respectively (Fig. 3 A–E and Table 1). […] The two isomers were separated from each other by passing the reaction through affinity columns containing 1-pHis mAbs using SC1-1 or SC50-3 IgGs or 3-pHis mAbs using SC39-4, SC44-8, and SC56-2 IgGs. The eluates thus contained either predominantly 1-pHis or 3-pHis peptides. These peptides were used to determine the affinity to their respective isomer class of pHis Fabs (Fig. 3 F–J, Table 1, and SI Appendix, Fig. S5). […] This experimental observation is well supported by the higher number of hydrogen bonds that support the SC44-8:3-pTza interaction compared to other pHis Fabs (SI Appendix, Table S5). […] There are at least three reasons for the lower affinity of the mAbs for pHis peptides compared to pTza peptides: The continuous hydrolysis of phosphate from the pHis peptides during the course of the experiment (SI Appendix, Fig. S6), a reduction in the number of hydrogen bond interactions due to one less nitrogen in the imidazole ring compared to triazolyl ring (Fig. 4 and SI Appendix, Fig. S8), and inherently different electronic properties of the imidazole and triazolyl rings in His and Tza, respectively ([20]).
(§2) Fig. 3. Binding kinetics of pHis Fabs with cognate pTza and pHis peptides. BLI studies of immobilized peptides (ACLYana-1/3-pTza and phosphorylated ACLYana) with varying concentrations of the pHis Fabs were carried out in triplicate on an Octet Red96e instrument (FortéBio). SC1-1 (A) and SC50-3 (B) pHis Fab interaction with their ACLYana-1-pTza peptides. SC39-4 (C), SC44-8 (D), and SC56-2 (E) pHis Fabs interactions with ACLYana-3-pTza peptides. SC1-1 (F), SC50-3 (G), SC39-4 (H), SC44-8 (I), and SC56-2 (J) pHis Fabs interactions with their affinity-purified ACLYana-pHis peptides are represented, Right. The experimental data are represented in the black dashed lines and the nonlinear least-squares fitting was represented in the red continuous lines. The χ^2 for the goodness of fit is under 1.0 for the all the plots.
(§3) The binding kinetics of pHis Fabs with the peptides (pTza and pHis) were evaluated with an Octet RED96e (FortéBio). Streptavidin-coated biosensors (FortéBio) were presoaked in buffer containing 50 mM Hepes pH 8.0, 150 mM NaCl, 0.05% Tween-20, and 0.2% BSA for 15 min. The biotinylated pTza peptides or pHis peptides (20 nM) with and without phosphoramidate treatment were coated onto these streptavidin biosensors and analyzed for their binding to varying concentrations of the pHis Fabs with an association time of 120 s and dissociation time of 200 s. The entire set of experiments was repeated three times. The data were analyzed using the Octet software (FortéBio) and the rates of association and dissociation were obtained by global fitting data to the 1:1 Langmuir interaction model.

[8] = tested on: ACLYana-3-pHis peptide (AGAG-3-pHis-AGAG); test: BLI binding kinetics of 3-pHis Fabs with affinity-purified pHis peptide; conditions: for ka / kd / Kd: BLI, 1:1 Langmuir global fit, triplicate; for ka / kd: affinity-purified ACLYana-3-pHis peptide; for Kd: ACLYana phosphorylated with phosphoramidate (8 h, 23 °C), 3-pHis isomer affinity-purified on 3-pHis IgG column, immobilized on streptavidin biosensors, Hepes pH 8.0; for affinity for 3-pHis peptides, times (fold) weaker than for the 3-pTza peptide: ratio of BLI KD, 3-pHis versus 3-pTza peptide
Experimental: as §1, §2
as §3, with “model. […]” for “model.”
Peptides used in the DSF and BLI experiments were synthesized by the Salk Peptide Synthesis Core. These peptides were N-terminally biotinylated and C-terminally amidated. They were synthesized using standard Fmoc chemistry on a Gyros Protein Technologies Tribute peptide synthesizer with UV monitoring. Following the deprotection, peptides were analyzed by mass spectrometry and analytical HPLC by the Proteomics Core at Salk. The peptides were HPLC purified to 99% purity by 21st Century Biochemicals, Inc. The Fmoc-pTza’s were synthesized at 10 g scale for incorporation into the peptides. […]

[9] = target: T5, ACLYana-1-pHis peptide (AGAG-1-pHis-AGAG); test: BLI; N-terminally biotinylated peptides (20 nM) on streptavidin biosensors, varying concentrations of Fab in solution; 50 mM Hepes pH 8.0, 150 mM NaCl, 0.05% Tween-20, 0.2% BSA; association 120 s, dissociation 200 s; global fit to a 1:1 Langmuir model; Octet RED96e; in triplicate
[10] = target: ACLYana-1-pTza peptide (AGAG-1-pTza-AGAG); test: as above

Row | Molecule | Kd [1] [nM] | koff [1] [s⁻¹] | kon [1] [M⁻¹ s⁻¹] | Kd [2] [nM] | koff [2] [s⁻¹] | kon [2] [M⁻¹ s⁻¹] | Kd [3] [nM] | koff [3] [s⁻¹] | kon [3] [M⁻¹ s⁻¹] | Kd [4] [nM] | koff [4] [s⁻¹] | kon [4] [M⁻¹ s⁻¹] | Kd [5] [nM] | koff [5] [s⁻¹] | kon [5] [M⁻¹ s⁻¹] | Kd [6] [nM] | koff [6] [s⁻¹] | kon [6] [M⁻¹ s⁻¹] | Kd [7] [nM] | ka [7] [M⁻¹ s⁻¹] | further results
1 | B1 | 2320 | 0.0521 | 22400 | 2350 | 0.073 | 51400 | 1420 | 0.0243 | 72200 | 3290 | 0.0454 | 13800 | 67 | 0.011 | 164000 | 799 | 0.117 | 147000 | – | – | –
2 | B2 | – | – | – | – | – | – | – | – | – | – | – | – | – | – | – | – | – | – | 67 | 164000 ± 1060 | kd [7]: 0.011 ± 1.6e-05 s⁻¹; ka [8]: 147000 ± 5780 M⁻¹ s⁻¹; kd [8]: 0.117 ± 0.0016 s⁻¹; Kd [8]: 799 nM; affinity for 3-pHis peptides, times (fold) weaker than for the 3-pTza peptide [8]: 10 to 25 times
3 | B3 | 6200 | 0.136 | 22000 | 5700 | 0.126 | 22200 | 3010 | 0.15 | 50100 | 3600 | 0.127 | 35600 | 96.6 | 0.00939 | 97300 | 2420 | 0.183 | 75600 | – | – | –
4 | B4 | – | – | – | – | – | – | – | – | – | – | – | – | – | – | – | – | – | – | 96.6 | 97300 ± 1110 | kd [7]: 0.00939 ± 1.78e-05 s⁻¹; ka [8]: 75600 ± 2170 M⁻¹ s⁻¹; kd [8]: 0.183 ± 0.00181 s⁻¹; Kd [8]: 2420 nM; affinity for 3-pHis peptides, times (fold) weaker than for the 3-pTza peptide [8]: 10 to 25 times
5 | B5 | – | – | – | – | – | – | – | – | – | – | – | – | – | – | – | – | – | – | – | – | Kd [9]: 95.1 nM; koff [9]: 0.00925 s⁻¹; kon [9]: 97300 M⁻¹ s⁻¹; Kd [10]: 24.8 nM; koff [10]: 0.00199 s⁻¹; kon [10]: 81300 M⁻¹ s⁻¹
